Consider two molecules from PMC9569620, “OsNAC15 Regulates Tolerance to Zinc Deficiency and Cadmium by Binding to OsZIP7 and OsZIP10 in Rice”.

Data set [1] has as its target T1, GST-OsNAC15 (Oryza sativa, UniProt K9LKF1 1-301).
T1 sequence: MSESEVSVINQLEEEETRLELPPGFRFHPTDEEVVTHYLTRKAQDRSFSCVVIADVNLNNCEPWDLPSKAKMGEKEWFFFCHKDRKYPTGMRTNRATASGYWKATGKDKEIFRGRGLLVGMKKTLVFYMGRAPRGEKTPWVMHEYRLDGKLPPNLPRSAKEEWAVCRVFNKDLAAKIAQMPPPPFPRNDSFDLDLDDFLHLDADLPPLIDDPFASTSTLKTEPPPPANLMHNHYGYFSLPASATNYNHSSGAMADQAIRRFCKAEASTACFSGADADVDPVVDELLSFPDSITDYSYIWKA
In words: EMSA; EMSA: 20 uL reaction, room temperature, 20 min; 6.5% polyacrylamide gel in 0.5x TBE, 1 h; buffer, salt and pH not stated (LightShift Chemiluminescent EMSA kit). To be noted: protein: recombinant; tags: N-term GST (pGEX-4T1); chain copies: 2; label: biotin at 5' of F strand; biotin printed at 3' end of R strand; blunt. For orientation: A gel shift assay detects complexes by their altered migration in electrophoresis.

For data set [2], the target named is T1, GST-OsNAC15. Description: competition; 25-fold molar excess over labeled OsZIP10 probe; complex band weaker; EMSA: 20 uL reaction, room temperature, 20 min; 6.5% polyacrylamide gel in 0.5x TBE, 1 h; buffer, salt and pH not stated (LightShift Chemiluminescent EMSA kit). To be noted: protein: recombinant; tags: N-term GST (pGEX-4T1); chain copies: 2; label: none; blunt.

B1: OsZIP10 probe (dsDNA)
DNA 1: TCGCGCCATGGTGTCGACACGGCCATCTCT
DNA 2: AGAGATGGCCGTGTCGACACCATGGCGCGA
For the molecule B1, the binding result in data set [1] is listed as “binds”.

B2: OsZIP10 cold competitor (dsDNA)
DNA 1: TCGCGCCATGGTGTCGACACGGCCATCTCT
DNA 2: AGAGATGGCCGTGTCGACACCATGGCGCGA
As for B2, the binding result in data set [2] is recorded as “binds”.
